We go through 2 molecules from patent US20240000957A1 (published 2024).

One assay concerns the target T1, Mouse EphA3 Fc fusion (Mouse, UniProt P29319 21-540).
T1 construct: Bought Fc fusion; also called Sino Biologics 51122-M02H; not shown: Fc of the bought fusion
T1 sequence (looked up): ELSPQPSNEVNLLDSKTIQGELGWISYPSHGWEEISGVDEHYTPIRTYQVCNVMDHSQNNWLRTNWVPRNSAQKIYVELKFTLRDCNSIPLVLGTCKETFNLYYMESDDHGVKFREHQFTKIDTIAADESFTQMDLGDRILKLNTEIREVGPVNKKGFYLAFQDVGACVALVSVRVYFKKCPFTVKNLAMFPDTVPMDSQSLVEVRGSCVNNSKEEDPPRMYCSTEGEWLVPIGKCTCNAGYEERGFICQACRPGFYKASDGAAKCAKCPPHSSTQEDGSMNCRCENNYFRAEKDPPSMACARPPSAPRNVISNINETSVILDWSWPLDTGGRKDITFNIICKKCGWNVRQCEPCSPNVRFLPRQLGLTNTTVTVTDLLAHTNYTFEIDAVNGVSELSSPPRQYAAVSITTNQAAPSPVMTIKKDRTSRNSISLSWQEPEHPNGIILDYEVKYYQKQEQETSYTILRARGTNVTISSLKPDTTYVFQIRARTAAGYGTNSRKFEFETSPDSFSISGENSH
The assay is described as follows: SPR, Fc-tagged protein captured by anti-human IgG.

The next assay concerns the target T2, Mouse EphA4 Fc fusion (Mouse, UniProt Q03137 20-547).
T2 construct: Bought Fc fusion; also called Sino Biologics 50575-M02H; not shown: Fc of the bought fusion
The assay is described as follows: SPR, Fc-tagged protein captured by anti-human IgG.

The next assay deals with T3, Rat EphB1 Fc fusion (Rat, UniProt P09759 18-540, limits assumed).
T3 construct: Bought Fc fusion; also called R&D Systems 1596-B1; not shown: Fc of the bought fusion
T3 sequence (looked up): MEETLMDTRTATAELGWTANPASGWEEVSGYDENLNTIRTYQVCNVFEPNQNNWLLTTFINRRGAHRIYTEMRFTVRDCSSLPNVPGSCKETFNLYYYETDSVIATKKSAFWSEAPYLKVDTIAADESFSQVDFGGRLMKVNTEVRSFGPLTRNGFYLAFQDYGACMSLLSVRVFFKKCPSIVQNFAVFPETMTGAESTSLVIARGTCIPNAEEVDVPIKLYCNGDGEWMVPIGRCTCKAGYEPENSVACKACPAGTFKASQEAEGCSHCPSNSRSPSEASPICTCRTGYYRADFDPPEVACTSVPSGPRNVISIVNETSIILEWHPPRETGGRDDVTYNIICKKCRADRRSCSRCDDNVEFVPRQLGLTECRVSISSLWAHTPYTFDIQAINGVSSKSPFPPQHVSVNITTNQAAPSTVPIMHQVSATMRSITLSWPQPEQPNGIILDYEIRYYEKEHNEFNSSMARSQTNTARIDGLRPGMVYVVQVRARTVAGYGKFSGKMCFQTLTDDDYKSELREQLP
The experiment in a line: SPR, Fc-tagged protein captured by anti-human IgG. (Surface plasmon resonance follows binding to a sensor surface in real time, without labels.)

Another assay concerns the target T4, Rat EphA3 Fc fusion (Rat, UniProt O08680 21-541).
T4 construct: Bought Fc fusion; also called Sino Biologics 80465-R02H; not shown: Fc of the bought fusion
T4 sequence (looked up): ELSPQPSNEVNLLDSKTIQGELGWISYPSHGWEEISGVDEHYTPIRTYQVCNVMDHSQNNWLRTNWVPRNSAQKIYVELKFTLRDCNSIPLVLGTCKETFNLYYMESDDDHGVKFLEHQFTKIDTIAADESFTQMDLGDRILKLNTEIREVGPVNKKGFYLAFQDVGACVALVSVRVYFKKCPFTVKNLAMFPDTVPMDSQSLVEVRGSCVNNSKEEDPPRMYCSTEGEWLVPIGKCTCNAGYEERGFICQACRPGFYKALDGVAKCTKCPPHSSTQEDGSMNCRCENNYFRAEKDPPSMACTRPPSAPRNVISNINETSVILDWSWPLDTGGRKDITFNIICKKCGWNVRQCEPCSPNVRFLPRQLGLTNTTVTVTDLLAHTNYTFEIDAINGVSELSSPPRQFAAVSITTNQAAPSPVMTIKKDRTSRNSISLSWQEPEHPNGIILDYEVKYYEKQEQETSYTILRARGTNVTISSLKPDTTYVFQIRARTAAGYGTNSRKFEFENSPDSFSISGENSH
The assay is described as follows: SPR, Fc-tagged protein captured by anti-human IgG.

A further assay deals with Rat EphA2 (Rat, UniProt D3ZBN3 23-538, biotinylated, 1.4 mol biotin/monomer). The assay is described as follows: SPR, biotinylated EphA2 on streptavidin chip.

T2 sequence (Q03137 20-547 limits assumed): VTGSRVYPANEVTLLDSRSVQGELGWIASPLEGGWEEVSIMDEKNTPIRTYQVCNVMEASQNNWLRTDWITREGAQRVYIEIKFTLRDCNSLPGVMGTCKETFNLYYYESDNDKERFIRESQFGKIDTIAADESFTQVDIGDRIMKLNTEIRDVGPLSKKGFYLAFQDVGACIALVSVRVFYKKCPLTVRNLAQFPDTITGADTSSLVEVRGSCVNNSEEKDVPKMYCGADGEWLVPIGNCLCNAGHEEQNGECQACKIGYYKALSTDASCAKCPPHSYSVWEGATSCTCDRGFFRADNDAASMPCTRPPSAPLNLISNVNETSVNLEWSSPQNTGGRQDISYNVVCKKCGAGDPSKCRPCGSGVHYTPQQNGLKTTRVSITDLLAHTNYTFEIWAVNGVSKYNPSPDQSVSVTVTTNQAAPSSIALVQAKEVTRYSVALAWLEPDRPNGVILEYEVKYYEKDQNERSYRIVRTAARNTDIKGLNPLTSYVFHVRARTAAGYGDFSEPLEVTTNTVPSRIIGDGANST

B1: BCY6033 (peptide)
peptide: AXDCPLVNPLCLHPGWTC
modifications: not fully specified; N-terminal (β-Ala)-Sar10 spacer precedes SEQ ID NO: 11; HArg (homoarginine) at residue 2 of SEQ ID NO: 11; three Cys cyclised on the TATA scaffold; ValCit-MMAE (MMAE-PABC-Cit-Val-glutarate) on the N-terminal amine
Consider B1, for which the binding result in the assay with Mouse EphA3 Fc fusion, with Mouse EphA4 Fc fusion, with Rat EphB1 Fc fusion and with Rat EphA3 Fc fusion was “no binding (tested: 20 µM)” throughout. Also, the affinity with Rat EphA2, expressed as Kd, was 166 nM. Moreover, the t1/2 with Rat EphA2 amounted to 2.6 min.

B2: BCY6082 (peptide)
peptide: AXDCPLVNPLCLHPGWTC
modifications: not fully specified; N-terminal (β-Ala)-Sar10 spacer precedes SEQ ID NO: 11; HArg (homoarginine) at residue 2 of SEQ ID NO: 11; three Cys cyclised on the TATA scaffold; DM1-SS(SO3H)- (DM1-SO3H-SPDB) on the N-terminal amine
Consider B2, for which the binding result in the assay with Mouse EphA3 Fc fusion, with Mouse EphA4 Fc fusion, with Rat EphB1 Fc fusion and in the assay with Rat EphA3 Fc fusion was “no binding (tested: 20 µM)” throughout. Besides, the dissociation constant Kd – broadly, a measure of binding affinity in units of concentration – with Rat EphA2 was found to be 28.8 nM. The molecule further had a t1/2 with Rat EphA2 of 3.2 min.
